Laboratory results published in doi:10.1101/2025.10.13.682238.

Molecular target: GST tag (glutathione S-transferase affinity tag, free in the ATAD2B sample)
Assay: SEC; Superdex 200 Increase 10/300 GL on an ÄktaPrime system, ATAD2B sample from E. coli compared with a molecular weight standard mixture (thyroglobulin 670 kDa, ovalbumin 44 kDa)

GST tag (glutathione S-transferase affinity tag, free in the ATAD2B sample), sequence (P08515 2-218): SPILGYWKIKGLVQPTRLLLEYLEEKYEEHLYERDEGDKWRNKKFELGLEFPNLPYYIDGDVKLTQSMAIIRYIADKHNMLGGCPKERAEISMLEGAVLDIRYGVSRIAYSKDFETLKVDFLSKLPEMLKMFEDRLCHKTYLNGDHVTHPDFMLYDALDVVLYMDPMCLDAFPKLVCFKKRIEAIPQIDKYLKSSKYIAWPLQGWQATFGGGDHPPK

stoichiometry N: 2
Substance: GST tag (glutathione S-transferase affinity tag, free in the ATAD2B sample) (natural protein)
